Measurements taken from patent US20220144916A1.

Experiments:
[1] = target: KJ1-26 clonotypic antibody
[2] = target: OVA/I-Ad on murine A20 antigen presenting cells pulsed with OVA323-339 peptide (hen; mouse) (UniProt P01012)

EC50 (read off the curve) [1]: 0.03 nM | Half-life [2]: 5.5 min
Substance: DO11.10 scTCR-Fc fusion protein (Vβ-linker-Vα format)
